Square brackets hold non-standard residues; d marks the D form. Ends that are not written are not given here. pY = N[C@@H](Cc1ccc(OP(=O)(O)O)cc1)C(=O)O; pT = C[C@@H](OP(=O)(O)O)[C@H](N)C(=O)O

In experiment [1] the target is T1, GST-talin head (human talin1 head region 1-435) (human, UniProt Q9Y490 1-435).
T1 construct: The construct is human talin1 head region (1-435) cloned from HEK293T cells; also called wild-type GST-talin; not shown: GST (and further tags) of the pET42 vector
The experiment can be described thus: GST pull-down competition in vitro; competitor His-β1-integrin tail. As to the method:
(§1) Talin interactions were assessed by GST pull-down using recombinant GST-talin head, His-PIPKIγ635 C-terminus, His-PIPKIγ661 wild-type or Tyr to Phe mutant C-terminus, and His-β1-integrin tail. […] Peptides containing the PIPKIγ661/talin binding sequence (Di Paolo, et al. (2002) supra) were designed to include phosphorylated Tyr⁶⁴⁴₁, phosphorylated Tyr⁶⁴⁹₁ and dual phosphorylated Tyr⁶⁴⁴ and Tyr⁶⁴⁹. The phosphorylated peptides displaced PIPKIγ661 from talin more efficiently than the non-phosphorylated peptide in HEK293T cell lysates.
(§2) Purified GST-talin head proteins were incubated with PIPKIγ661 tails or β1-integrin tail, together with Glutathione SEPHAROSE™ 4 Fast Flow (Amersham Biosciences, Piscataway, N.J.), in Buffer B (PBS, 0.2% NP-40, 2 mM DTT) at 4° C. for 4 hours. The beads were washed three times with Buffer B and analyzed by western blot. For competition assays, GST-talin head proteins were incubated with peptides or competing proteins for 2 hours, then the binding proteins were added and the mixtures were incubated for another 4 hours.

Experiment [2] concerns the target T2, vinculin (UniProt P18206-2 1-1066, limits assumed).
T2 sequence (looked up): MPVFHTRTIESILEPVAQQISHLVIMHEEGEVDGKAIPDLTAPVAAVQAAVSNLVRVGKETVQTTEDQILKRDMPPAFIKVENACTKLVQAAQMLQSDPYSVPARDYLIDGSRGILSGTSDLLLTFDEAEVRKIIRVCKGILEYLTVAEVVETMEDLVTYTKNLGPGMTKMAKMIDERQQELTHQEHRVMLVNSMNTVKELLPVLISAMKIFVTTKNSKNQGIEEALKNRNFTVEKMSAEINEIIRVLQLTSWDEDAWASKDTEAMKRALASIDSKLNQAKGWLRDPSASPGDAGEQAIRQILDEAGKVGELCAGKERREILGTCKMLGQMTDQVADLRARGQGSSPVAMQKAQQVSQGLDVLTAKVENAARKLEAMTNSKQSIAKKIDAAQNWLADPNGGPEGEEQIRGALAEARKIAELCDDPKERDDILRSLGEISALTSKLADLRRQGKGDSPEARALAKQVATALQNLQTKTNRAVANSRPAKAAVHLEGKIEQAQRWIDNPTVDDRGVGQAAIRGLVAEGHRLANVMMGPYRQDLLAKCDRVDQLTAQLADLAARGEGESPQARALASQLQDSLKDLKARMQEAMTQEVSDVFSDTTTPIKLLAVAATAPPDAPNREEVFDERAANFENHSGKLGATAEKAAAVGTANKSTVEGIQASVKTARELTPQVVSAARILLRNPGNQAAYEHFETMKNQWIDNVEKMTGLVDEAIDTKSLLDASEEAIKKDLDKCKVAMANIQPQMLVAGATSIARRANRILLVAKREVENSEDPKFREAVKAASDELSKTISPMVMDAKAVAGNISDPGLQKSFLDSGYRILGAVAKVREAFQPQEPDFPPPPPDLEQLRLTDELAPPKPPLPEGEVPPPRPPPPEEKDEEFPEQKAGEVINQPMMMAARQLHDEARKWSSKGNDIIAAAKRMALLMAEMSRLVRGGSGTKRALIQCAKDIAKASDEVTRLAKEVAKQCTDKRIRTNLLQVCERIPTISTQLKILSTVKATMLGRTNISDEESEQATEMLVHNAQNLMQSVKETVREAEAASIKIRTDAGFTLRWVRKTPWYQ
The experiment can be described thus: co-immunoprecipitation with HA-tagged PIPKIγ661 from HEK 293T cells. An excerpt:
(§3) Two approaches were used to identify proteins that specifically interact with PIPKIγ661. […] As numerous focal adhesion proteins are tyrosine phosphorylated, the immunoprecipitates were immunoblotted with anti-phosphotyrosine antibodies. A tyrosine-phosphorylated protein of relative molecular mass 230,000 (Mᵣ 230K) was selectively immunoprecipitated with PIPKIγ661. This protein was identified as talin (Pasquale, et al. (1986) Proc. Natl Acad. Sci. USA 83:5507-5511; DeClue and Martin (1987) Mol. Cell Biol. 7:371-378). […] Only the PIPKIα/γ chimeras that target to focal adhesions associated with talin. To confirm the talin-PIPKIγ661 interaction, talin was immunoprecipitated from HEK293T cells overexpressing PIPKIγ661 or PIPKIγ635. Talin co-precipitated with PIPKIγ661, but not PIPKIγ635. It is known that endogenous PIPKIγ splice isoforms are widely expressed in various cell lines. When endogenous PIPKIγ was immunoprecipitated from a variety of cells types, talin association was consistently observed.
(§4) Immunoprecipitation was performed using standard methods (Zhang, et al. (1997) J. Biol. Chem. 272:17756-17761). […] The immunocomplexes were washed with Buffer A, separated by SDS-polyacrylamide gel electrophoresis (SDS-PAGE), and analyzed as indicated. […]

Experiment [3] deals with tensin (UniProt Q9HBL0 1-1839, limits assumed). The experiment is described as above.
Sequence of tensin (Q9HBL0 whole entry): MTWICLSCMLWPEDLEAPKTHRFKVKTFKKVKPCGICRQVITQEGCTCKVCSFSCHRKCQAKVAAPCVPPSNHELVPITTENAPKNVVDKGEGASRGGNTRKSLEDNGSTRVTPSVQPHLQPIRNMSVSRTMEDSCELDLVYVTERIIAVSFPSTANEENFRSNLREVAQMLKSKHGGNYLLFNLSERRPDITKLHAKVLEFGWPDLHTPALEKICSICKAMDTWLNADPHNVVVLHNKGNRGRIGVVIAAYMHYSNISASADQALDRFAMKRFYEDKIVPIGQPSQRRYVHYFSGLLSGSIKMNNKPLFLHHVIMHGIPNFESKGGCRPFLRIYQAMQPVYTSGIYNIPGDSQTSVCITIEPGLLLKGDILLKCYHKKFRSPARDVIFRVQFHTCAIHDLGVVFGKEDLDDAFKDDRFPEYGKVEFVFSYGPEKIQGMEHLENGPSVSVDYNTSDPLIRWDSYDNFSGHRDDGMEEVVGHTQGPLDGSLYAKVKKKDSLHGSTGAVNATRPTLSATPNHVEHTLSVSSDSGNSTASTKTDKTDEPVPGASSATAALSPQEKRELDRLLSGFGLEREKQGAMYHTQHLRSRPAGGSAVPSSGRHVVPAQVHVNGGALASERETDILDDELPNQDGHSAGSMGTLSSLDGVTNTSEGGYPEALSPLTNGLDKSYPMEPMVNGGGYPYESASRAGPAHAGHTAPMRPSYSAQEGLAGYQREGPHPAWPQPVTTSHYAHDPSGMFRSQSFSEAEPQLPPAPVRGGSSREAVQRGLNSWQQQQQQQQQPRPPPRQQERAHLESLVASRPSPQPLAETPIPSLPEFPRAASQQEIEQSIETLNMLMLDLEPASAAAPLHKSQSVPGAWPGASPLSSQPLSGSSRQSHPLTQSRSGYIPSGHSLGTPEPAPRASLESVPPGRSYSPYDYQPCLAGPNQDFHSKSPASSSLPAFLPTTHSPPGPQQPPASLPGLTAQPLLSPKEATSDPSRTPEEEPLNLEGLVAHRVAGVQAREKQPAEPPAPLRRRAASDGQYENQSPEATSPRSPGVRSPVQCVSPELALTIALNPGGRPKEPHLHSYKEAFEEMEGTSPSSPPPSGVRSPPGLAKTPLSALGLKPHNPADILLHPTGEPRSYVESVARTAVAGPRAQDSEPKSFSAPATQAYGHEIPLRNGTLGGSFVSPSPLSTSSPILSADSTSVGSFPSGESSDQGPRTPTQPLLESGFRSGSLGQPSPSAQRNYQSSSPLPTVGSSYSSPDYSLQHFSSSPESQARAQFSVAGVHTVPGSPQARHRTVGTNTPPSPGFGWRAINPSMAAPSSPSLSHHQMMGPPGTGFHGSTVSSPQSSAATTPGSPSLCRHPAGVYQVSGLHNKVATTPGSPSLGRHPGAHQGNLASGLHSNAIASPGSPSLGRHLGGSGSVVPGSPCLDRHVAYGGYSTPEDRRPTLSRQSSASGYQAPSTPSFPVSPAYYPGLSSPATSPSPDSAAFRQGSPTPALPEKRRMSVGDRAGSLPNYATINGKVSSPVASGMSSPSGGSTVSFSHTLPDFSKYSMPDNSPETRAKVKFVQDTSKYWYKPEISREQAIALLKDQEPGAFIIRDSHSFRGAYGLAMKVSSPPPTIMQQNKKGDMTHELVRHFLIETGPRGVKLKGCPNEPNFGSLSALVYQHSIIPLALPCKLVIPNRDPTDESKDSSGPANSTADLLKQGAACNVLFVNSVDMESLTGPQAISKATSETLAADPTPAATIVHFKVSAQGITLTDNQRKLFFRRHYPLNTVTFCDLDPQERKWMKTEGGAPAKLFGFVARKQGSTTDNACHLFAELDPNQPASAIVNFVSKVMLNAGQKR
Description: as §3, §4

In experiment [4] the target is T3, talin (Homo sapiens (Human), UniProt Q9Y490 1-2541).
T3 construct: Endogenous talin of HEK293T (and other) cells, detected with anti-talin antibody; also called talin (endogenous, in cell lysates)
T3 sequence (Q9Y490 other isoform, or with tags, fused parts or gaps limits assumed): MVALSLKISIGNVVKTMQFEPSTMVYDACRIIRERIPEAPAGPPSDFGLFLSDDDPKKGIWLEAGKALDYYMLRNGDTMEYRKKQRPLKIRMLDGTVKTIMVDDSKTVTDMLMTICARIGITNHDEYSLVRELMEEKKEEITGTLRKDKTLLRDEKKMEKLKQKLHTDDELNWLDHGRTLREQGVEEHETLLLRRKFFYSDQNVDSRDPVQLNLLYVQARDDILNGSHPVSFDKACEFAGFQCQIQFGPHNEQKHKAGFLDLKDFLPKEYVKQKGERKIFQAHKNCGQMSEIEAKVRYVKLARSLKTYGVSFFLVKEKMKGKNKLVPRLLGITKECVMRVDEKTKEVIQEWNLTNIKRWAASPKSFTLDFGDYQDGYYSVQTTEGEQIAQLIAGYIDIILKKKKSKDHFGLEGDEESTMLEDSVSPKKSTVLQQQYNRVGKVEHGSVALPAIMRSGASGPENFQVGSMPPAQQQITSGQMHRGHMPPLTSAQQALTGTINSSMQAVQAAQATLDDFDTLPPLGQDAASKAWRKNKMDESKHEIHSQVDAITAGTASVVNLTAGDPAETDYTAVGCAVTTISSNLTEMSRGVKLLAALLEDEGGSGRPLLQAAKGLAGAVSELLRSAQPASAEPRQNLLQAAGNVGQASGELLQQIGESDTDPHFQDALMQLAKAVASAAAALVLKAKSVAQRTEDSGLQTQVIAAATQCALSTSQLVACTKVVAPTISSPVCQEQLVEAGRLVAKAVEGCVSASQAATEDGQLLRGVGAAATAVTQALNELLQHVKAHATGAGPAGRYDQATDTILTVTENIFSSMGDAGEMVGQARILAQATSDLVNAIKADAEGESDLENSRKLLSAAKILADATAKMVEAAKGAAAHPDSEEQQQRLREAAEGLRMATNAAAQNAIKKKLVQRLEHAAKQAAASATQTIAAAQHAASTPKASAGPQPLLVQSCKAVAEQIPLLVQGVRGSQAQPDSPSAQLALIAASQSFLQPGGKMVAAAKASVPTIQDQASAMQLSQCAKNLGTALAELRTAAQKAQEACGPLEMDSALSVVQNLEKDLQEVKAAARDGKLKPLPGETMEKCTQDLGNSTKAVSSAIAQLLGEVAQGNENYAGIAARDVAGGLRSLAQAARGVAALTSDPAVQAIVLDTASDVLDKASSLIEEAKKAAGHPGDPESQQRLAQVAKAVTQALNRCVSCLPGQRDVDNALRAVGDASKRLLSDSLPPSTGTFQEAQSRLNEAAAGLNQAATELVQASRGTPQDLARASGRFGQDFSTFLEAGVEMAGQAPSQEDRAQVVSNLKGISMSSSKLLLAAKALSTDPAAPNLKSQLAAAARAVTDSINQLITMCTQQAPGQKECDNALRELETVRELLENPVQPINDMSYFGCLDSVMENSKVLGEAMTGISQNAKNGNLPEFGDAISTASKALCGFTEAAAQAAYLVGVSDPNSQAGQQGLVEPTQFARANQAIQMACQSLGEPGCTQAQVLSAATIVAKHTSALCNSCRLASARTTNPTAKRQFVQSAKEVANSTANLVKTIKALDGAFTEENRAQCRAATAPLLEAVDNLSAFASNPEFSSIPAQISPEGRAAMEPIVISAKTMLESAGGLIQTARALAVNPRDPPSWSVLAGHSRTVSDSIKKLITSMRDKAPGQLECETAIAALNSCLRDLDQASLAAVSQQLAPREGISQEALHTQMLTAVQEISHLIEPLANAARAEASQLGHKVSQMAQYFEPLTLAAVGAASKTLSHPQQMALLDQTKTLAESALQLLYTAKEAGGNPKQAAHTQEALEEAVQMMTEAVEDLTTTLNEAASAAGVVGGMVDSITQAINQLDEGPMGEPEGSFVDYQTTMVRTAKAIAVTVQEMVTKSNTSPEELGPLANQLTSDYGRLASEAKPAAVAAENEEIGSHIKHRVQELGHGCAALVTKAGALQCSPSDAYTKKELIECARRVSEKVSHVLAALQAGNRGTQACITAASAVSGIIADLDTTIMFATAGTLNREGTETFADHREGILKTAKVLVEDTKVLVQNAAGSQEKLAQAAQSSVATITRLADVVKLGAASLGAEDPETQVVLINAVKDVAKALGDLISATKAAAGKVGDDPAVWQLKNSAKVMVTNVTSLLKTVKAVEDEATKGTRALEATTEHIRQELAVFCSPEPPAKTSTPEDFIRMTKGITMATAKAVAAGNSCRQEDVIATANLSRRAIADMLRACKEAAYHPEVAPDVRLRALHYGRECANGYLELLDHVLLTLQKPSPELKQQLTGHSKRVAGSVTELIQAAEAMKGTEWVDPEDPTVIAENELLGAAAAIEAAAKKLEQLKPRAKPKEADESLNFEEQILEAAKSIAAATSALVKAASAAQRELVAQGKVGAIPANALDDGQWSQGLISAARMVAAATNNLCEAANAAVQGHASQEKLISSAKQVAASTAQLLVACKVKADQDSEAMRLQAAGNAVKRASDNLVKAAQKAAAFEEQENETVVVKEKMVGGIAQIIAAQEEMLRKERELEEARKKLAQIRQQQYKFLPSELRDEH
As to the kind of experiment: co-immunoprecipitation from HEK293T cells in suspension versus adherent to type I collagen. Here is the method: The association between PIPKIγ661 and talin was also regulated by adhesion to type I collagen. […] However, in suspended cells, the PIPKIγ661 association with talin was restored when cells were stimulated with lysophosphatidic acid (LPA) or platelet-derived growth factor (PDGF).
Immunoprecipitation was performed using standard methods (Zhang, et al. (1997) J. Biol. Chem. 272:17756-17761). Briefly, transfected HEK293T cells were harvested and lysed in Buffer A (50 mM Tris-HCl, pH 7.5, 150 mM NaCl, 0.1-1.0% NP-40, 5.0 mM NaF, 2 mM Na₃VO₄, 4 mM Na₂P₂O₇, 1 mM EDTA, 0.1 mM EGTA, 1 mM phenylmethyl sulphonyl fluoride (PMSF), 10% glycerol), centrifuged and incubated with protein A-Sepharose and 5 μg anti-HA, anti-c-Myc, anti-Flag, anti-PIPKIγ or anti-talin antibody as indicated at 4° C. for 4 hours to overnight. The immunocomplexes were washed with Buffer A, separated by SDS-polyacrylamide gel electrophoresis (SDS-PAGE), and analyzed as indicated. For the kinase assay, the immunocomplexes were washed and stored in kinase buffer.
The cells were harvested and washed with PBS, and suspended in serum-free DMEM at 37° C. for 1 hour. After stimulation with 10 ng/ml platelet-derived growth factor (PDGF) (R&D Systems Inc., Minneapolis, Minn.), 1 μuM LPA (Sigma, St. Louis) or serum at 37° C. for 15 minutes, cells were lysed as for immunoprecipitation. […]

In experiment [5] the target is T3, talin. As to the kind of experiment: co-immunoprecipitation with talin.
In experiment [6] the target is T3, talin. As to the kind of experiment: co-immunoprecipitation of c-Myc-tagged chimeras.
Description: as §3, §4

In experiment [7] the target is T1, GST-talin head (human talin1 head …). The experiment can be described thus: peptide competition of integrin tail (competitor) binding to GST-talin. As to the method: as §2
For experiment [8], the target named is T3, talin. The experiment can be described thus: peptide displacement of PIPKIγ661 (competitor) from talin in HEK293T cell lysates. As to the method:
as §1

T1 sequence (Q9Y490 1-435): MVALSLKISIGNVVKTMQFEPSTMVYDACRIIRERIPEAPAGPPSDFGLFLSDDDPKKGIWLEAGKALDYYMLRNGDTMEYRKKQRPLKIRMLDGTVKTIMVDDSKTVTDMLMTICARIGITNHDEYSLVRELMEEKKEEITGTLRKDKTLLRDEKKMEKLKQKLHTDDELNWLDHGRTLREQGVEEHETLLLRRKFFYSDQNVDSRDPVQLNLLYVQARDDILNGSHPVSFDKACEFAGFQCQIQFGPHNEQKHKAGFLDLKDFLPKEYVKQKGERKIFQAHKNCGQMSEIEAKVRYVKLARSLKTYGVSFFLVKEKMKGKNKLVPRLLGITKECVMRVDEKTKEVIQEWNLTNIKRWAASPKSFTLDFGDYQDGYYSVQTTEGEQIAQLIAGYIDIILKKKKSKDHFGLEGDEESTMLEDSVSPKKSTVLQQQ

B1: PIPKIγ661 peptide pY644 (peptide)
peptide: CDERSWV[pY]SPLHYSAR
notes: Synthetic peptide with an added N-terminal Cys
Take B1: in experiment [1], the “fold higher affinity than the non-phosphorylated peptide” value worked out at 20 fold.

B2: PIPKIγ661 peptide pY644/649 (peptide)
peptide: CDERSWV[pY]SPLH[pY]SAR
notes: Synthetic peptide with an added N-terminal Cys; also called dual phosphorylated peptide
Take B2: the “fold higher affinity than the non-phosphorylated peptide” value in experiment [1] stood at 20 fold.

B3: Haemagglutinin (HA)-tagged PIPKIγ661 (enzyme, not shown: small tags and cut ends)
chain: MELEVPDEAESAEAGAVTAEAAWSAESGAAAGMTQKKAGLAEAPLVTGQPGPGHGKKLGHRGVDASGETTYKKTTSSTLKGAIQLGIGYTVGNLSSKPERDVLMQDFYVMESIFFPSEGSNFTPAHHFQDFRFKTYAPVAFRYFRELFGIRPDDYLYSLCNEPLIELSNPGASGSVFYVTSDDEFIIKTVMHKEAEFLQKLLPGYYMNLNQNPRTLLPKFYGLYCVQSGGKNIRVVVMNNVLPRVVKMHLKFDLKGSTYKRRASKKEKEKSLPTYKDLDFMQDMPEGLLLDSDTFGALVKTLQRDCLVLESFKIMDYSLLLGVHNIDQQERERQAEGAQSKADEKRPVAQKALYSTAMESIQGGAARGEAIETDDTMGGIPAVNGRGERLLLHIGIIDILQSYRFIKKLEHTWKALVHDGDTVSVHRPSFYAERFFKFMSSTVFRKSSSLKSSPSKKGRGALLAVKPLGPTAAFSASQIPSEREDVQYDLRGARSYPTLEDEGRPDLLPCTPPSFEEATTASIATTLSSTSLSIPERSPSDTSEQPRYRRRTQSSGQDGRPQEEPHAEDLQKITVQVEPVCGVGVVPKEEGAGVEVPPCGASAAASVEIDAASQASEPASQASDEEDAPSTDIYFPTDERSWVYSPLHYSARPASDGESDT
notes: tyrosine phosphorylated in cells to an extent that depends on the conditions; also called Type I phosphatidylinositol phosphate kinase isoform γ661; HA-PIPKIγ661
Consider B3, for which the values for the binding result in experiment [2], in experiment [3] and in experiment [4] were “no binding”, “no binding” and “binds”, respectively.

B4: PIPKIγ-W (enzyme)
chain: MELEVPDEAESAEAGAVTAEAAWSAESGAAAGMTQKKAGLAEAPLVTGQPGPGHGKKLGHRGVDASGETTYKKTTSSTLKGAIQLGIGYTVGNLSSKPERDVLMQDFYVMESIFFPSEGSNFTPAHHFQDFRFKTYAPVAFRYFRELFGIRPDDYLYSLCNEPLIELSNPGASGSVFYVTSDDEFIIKTVMHKEAEFLQKLLPGYYMNLNQNPRTLLPKFYGLYCVQSGGKNIRVVVMNNVLPRVVKMHLKFDLKGSTYKRRASKKEKEKSLPTYKDLDFMQDMPEGLLLDSDTFGALVKTLQRDCLVLESFKIMDYSLLLGVHNIDQQERERQAEGAQSKADEKRPVAQKALYSTAMESIQGGAARGEAIETDDTMGGIPAVNGRGERLLLHIGIIDILQSYRFIKKLEHTWKALVHDGDTVSVHRPSFYAERFFKFMSSTVFRKSSSLKSSPSKKGRGALLAVKPLGPTAAFSASQIPSEREDVQYDLRGARSYPTLEDEGRPDLLPCTPPSFEEATTASIATTLSSTSLSIPERSPSDTSEQPRYRRRTQSSGQDGRPQEEPHAEDLQKITVQVEPVCGVGVVPKEEGAGVEVPPCGASAAASVEIDAASQASEPASQASDEEDAPSTDIYFPTDERS
notes: The text says only that it lacks both Tyr644 and Tyr649; The end at Trp642 is inferred from the name; also called tail-truncation mutant of PIPKIγ661 lacking Tyr644 and Tyr649
Consider B4, for which the binding result in experiment [5] is “no binding”.

B5: PIPKIα/γ635 chimera (c-Myc-tagged) (enzyme, not shown: small tags and cut ends)
chain: MASASSGPSSSVGFSSFDPAVPSCTLSSAASGIKRPMASEVLEARQDSYISLVPYASGMPIKKIGHRSVDSSGETTYKKTTSSALKGAIQLGITHTVGSLSTKPERDVLMQDFYVVESIFFPSEGSNLTPAHHYNDFRFKTYAPVAFRYFRELFGIRPDDYLYSLCSEPLIELCSSGASGSLFYVSSDDEFIIKTVQHKEAEFLQKLLPGYYMNLNQNPRTLLPKFYGLYCVQAGGKNIRIVVMNNLLPRSVKMHIKYDLKGSTYKRRASQKEREKPLPTFKDLDFLQDIPDGLFLDADMYNALCKTLQRDCLVLQSFKIMDYSLLMSIHNIDHAQREPLSSETQYSVDTRRPAPQKALYSTAMESIQGEARRGGTMETDDHMGGIPARNSKGERLLLYIGIIDILQSYRFVKKLEHSWKALVHDGDTVSVHRPGFYAERFQRFEDVQYDLRGARSYPTLEDEGRPDLLPCTPPSFEEATTASIATTLSSTSLSIPERSPSDTSEQPRYRRRTQSSGQDGRPQEEPHAEDLQKITVQVEPVCGVGVVPKEEGAGVEVPPCGASAAASVEIDAASQASEPASQASDEEDAPSTDIYF
notes: range 1-444
On to B5, for which, in experiment [6], the binding result is recorded as “no binding”.

B6: β1-integrin tail peptide β1InpT (peptide)
peptide: CMNAKWD[pT]GENPIYKSA
notes: Synthetic peptide; also called phosphorylated Trp-Asp-Thr peptide
Consider B6, for which, in experiment [7], the binding result is recorded as “binds”.

B7: β1-integrin tail peptide β1InpY (peptide)
peptide: CMNAKWDTGENPI[pY]KSA
modifications: not fully specified; printed as Cys-Met-Asn-Ala-Lys-Trp-Asp-*Thr-Gly-Glu-Asn-Pro-Ile-*Tyr-Lys-Ser-Ala
notes: also called phosphorylated Asn-Pro-Ile-Tyr peptide
As for B7, the binding result in experiment [7] was “binds”.

B8: PIPKIγ661 peptide PN (peptide)
peptide: CDERSWVYSPLHYSAR
notes: Synthetic peptide with an added N-terminal Cys; also called non-phosphorylated peptide; unphosphorylated peptide
For B8, the binding result in experiment [8] is on record as “binds”.

B9: PIPKIγ661 peptide pY649 (peptide)
peptide: CDERSWVYSPLH[pY]SAR
notes: as for B1
B9: the “fold higher affinity than the non-phosphorylated peptide” value in experiment [1] came to 20 fold.

The values are drawn from patent US20040265295A1 (WISCONSIN ALUMNI RESEARCH FOUNDATION, published 2004).
